Assay results published in article PMC7958597, “In Vivo Biodistribution and Efficacy Evaluation of NeoB, A Radiotracer Targeted to GRPR, in Mice Bearing Gastrointestinal Stromal Tumor” (Cancers, 2021).
Values joined by “and” are separate entries in the source; they are usually repeats but may differ in a detail not shown here. Identical values can stand only once. Like-named read-outs stand apart in the source and are kept apart here.

Key:
[1] = test system: GIST-882 tumor; assay: Therapeutic efficacy (tumor growth, survival without reaching limit tumor volume); type: in vivo, mice; conditions: for mice excluded due to tumor volume over the limit of 1500 mm^3: 100 days of follow-up, 5 out of 13 control mice reached the limit; for tumor volume in comparison to control group: 37 MBq i.v. once a week for 3 weeks, day 0-26
Description: (§1) All procedures were performed in accordance with the institutional guidelines and approved by the animal care and use committee of Grenoble University (APAFIS#6544-2016082615349282 v8). The study was performed on 6-weeks old male SCID mice (Charles River). A total of 82 mice were used, 42 for the biodistribution sub-study and 40 for the therapy sub-study. Mice were subcutaneously inoculated into the left flank with GIST-882 (2 to 4 × 10^6) in a 1:1 PBS/Matrigel® (Corning, Corning, NY, USA) mixture.
(§2) Efficacy was evaluated on 40 mice when the tumor volume reached ~100 mm^3. Control mice were intravenously injected with saline (Control group, n = 13), whereas treated mice received either 400 pmol (400 pmol group, n = 13) or 800 pmol (800 pmol group, n = […]) of 37 MBq of [^177Lu]Lu-NeoB once a week for 3 weeks. Tumor size was recorded 3 times per week before and after therapy administration and 5 times per week during the 3 weeks of the therapy administration. When a tumor volume exceeding 1500 mm^3 the animal was removed from the study and euthanized by CO2 inhalation. Pancreas was then frozen, 10 µm-thick slices were stained using hemato-eosin saffron (HES) and subsequently analyzed by a histopathologist.

[2] = Biodistribution of [^177Lu]Lu-NeoB by organ sampling and gamma counting; type: in vivo, mice; conditions: male, mouse, iv, total radioactivity
Description: as §1
(§3) Biodistribution of [^177Lu]Lu-NeoB was evaluated when the tumor volume reached ~200 mm^3. The biodistribution was evaluated at 7 time points (1 h, 4 h, 4 h + block, 24 h, 48 h, 96 h, and 168 h). The compound was injected intravenously (100 µL/200 pmol/~0.8 MBq per mice). Moreover, an excess of 40 nmol unlabeled NeoB was co-injected in the mice of the 4 h + block condition. At the selected time point, mice were euthanized by CO2 inhalation, and the main organs and fluids were sampled and weighed. The activity was determined using a gamma well counter (Wizard^2 PerkinElmer, Waltham, MA, USA), the results were corrected for background, decay and sample weight, and the data were expressed as a % ID/g (percentage of injected dose per gram of tissue).

[3] = test system: SCID mice bearing GIST-882 tumors (GRPR expressing); assay: as above; type: in vivo
Description: as §1, §3

[4] = SPECT-CT quantification of tumor uptake; type: in vivo, mice; conditions: male, SCID, mouse, GIST-882 tumor, iv, total radioactivity, 37 MBq i.v., 24 h post injection, n = 3
Description: Dual single photon emission computed tomography and x-ray computed tomography (SPECT-CT) imaging were performed in a subset of 6 mice of the therapeutic efficacy sub-study (3 from 400 pmol group and 3 from 800 pmol group). Acquisitions were performed the day after [^177Lu]Lu-NeoB injection (24 h post injection). SPECT-CT acquisitions were performed using a dedicated camera (nanoscan SPECT/CT, Mediso, Budapest, Hungary). Animals were placed on a pathogen-free animal handling system (MulticellTM, Mediso, Budapest, Hungary) under gas anesthesia (isoflurane 1–2%). Whole body imaging was performed. SPECT duration was of approximately 35 min, and CT acquisition of 5 min (at 35 kvp). Acquisitions were reconstructed with Nucline software using Monte Carlo reconstruction and scatter and attenuation correction, corrected for decay and expressed as % injected dose per gram (% ID/g). Image analysis was performed using Vivoquant software (version 3.5, Invicro, Boston, MA, USA).

[5] = Stability of the radiolabeled preparation by radio-HPLC (RCP); type: physicochemical; conditions: 24 h after labeling; Symmetry C18, H2O/acetonitrile 0.1% TFA gradient
Description: ^177Lu^3+ in aqueous 0.04 M HCl solution was purchased from ITG (Garding, Germany). Chemicals for radiolabeling were of trace metal® grade. Radiochemical purity (RCP) of each radiolabeled solution was determined using a high performance liquid chromatography (HPLC) apparatus (Shimadzu, France) equipped with NaI (Tl) scintillation detectors (LabLogic, UK). The radiolabeling was performed as previously described (25). For the biodistribution sub study, 92 nmol of NeoB was radiolabeled with 370 MBq of ^177LuCl3 and the reaction was then incubated at 95 °C for 7 min. The concentration was then adjusted at 200 pmol/100 µL (0.8 MBq) and a sterilizing filtration was performed. A similar protocol was employed for the therapy sub-study, using 20 nmol of NeoB and 1850 MBq of Lu-177. The concentration was then adjusted at 400 pmol/100 µL (37 MBq). A second solution of 800 pmol per 100 µL (37 MBq) was obtained by the addition of unlabeled NeoB peptide. A 0.22 µm sterile filtration was then performed. Radiochemical purity (RCP) was determined immediately after labeling and at 24 h by radio-HPLC analysis using an analytical reverse-phase column (Symmetry C18, 5 μm, 150 × 4.6 mm). A gradient elution was performed using solvent A (H2O, 0.1% TFA) and solvent B (acetonitrile, 0.1% TFA) as mobile phase at a flow rate of 1 mL/min.

[6] = Tolerability in the efficacy sub-study (body weight, pancreas histology HES); type: in vivo, mice; conditions: 400 or 800 pmol, 37 MBq once a week for 3 weeks
Description: as §2

[7] = test system: PC-3 bearing mice; conditions: cited from earlier work
Description: In this study, we evaluate for the first time the theragnostic potential of [^177Lu]Lu-NeoB for tumor treatment by performing biodistribution and therapeutic studies in mice bearing GIST. In accordance with above mentioned finding, injected mass ranging from 200 to 800 pmol were employed. […] Indeed, in PC-3 be ...

[8] = from time activity curve 1-168 h, 200 pmol i.v.

## CC(C)CC(CC(C)C)NC(=O)[C@H](Cc1cnc[nH]1)NC(=O)CNC(=O)[C@@H](NC(=O)[C@H](C)NC(=O)[C@H](Cc1c[nH]c2ccccc12)NC(=O)[C@H](CCC(N)=O)NC(=O)[C@@H](Cc1ccccc1)NC(=O)COCC(=O)Nc1ccc(CNC(=O)CN2CCN(CC(=O)O)CCN(CC(=O)O)CCN(CC(=O)O)CC2)cc1)C(C)C [[^177Lu]Lu-NeoB, metal not drawn]
[1]; 400 pmol dose, 37 MBq once a week for 3 weeks
  tumor regression: complete tumor regression
[1]; 400 pmol group
  mice excluded due to tumor volume over the limit of 1500 mm^3: none
[1]; 400 pmol group, from day 65
  residual tumor: no residual tumor volume
[1]; 400 pmol, p = 0.0001
  tumor volume in comparison to control group: significantly reduced
[1]; 800 pmol group
  mice excluded due to tumor volume over the limit of 1500 mm^3: none
[1]; 800 pmol, p = 0.0066
  tumor volume in comparison to control group: significantly reduced
[2]; SCID, GIST-882 tumor, 200 pmol/mouse, 1 h pi, 200 pmol/~0.8 MBq i.v., mean ± SD, read-out: uptake in GIST-882 tumor
  tissue uptake at 1 h: 21.6 ± 1.7 %ID/g
[2]; SCID, GIST-882 tumor, 200 pmol/mouse, 4 h pi, 200 pmol/~0.8 MBq i.v., mean ± SD, read-out: uptake in GIST tumor
  tissue uptake at 4 h: 19.1 ± 3.9 %ID/g
[2]; SCID, GIST-882 tumor, 200 pmol/mouse, 24 h pi, 200 pmol i.v., mean ± SD
  tissue uptake at 24 h: 13.4 ± 3.5 %ID/g
[2]; SCID, GIST-882 tumor, 200 pmol/mouse, 48 h pi, 200 pmol i.v., mean ± SD
  tissue uptake at 48 h: 10.5 ± 1.6 %ID/g
[2]; SCID, GIST-882 tumor, 200 pmol/mouse, 96 h pi, 200 pmol i.v., mean ± SD
  tissue uptake at 96 h: 5.9 ± 0.3 %ID/g
[2]; SCID, GIST-882 tumor, 200 pmol/mouse, 168 h pi, 200 pmol i.v., mean ± SD
  tissue uptake at 168 h: 2.5 ± 0.7 %ID/g
[2]; SCID, GIST-882 tumor, 4 h pi, co-injected with excess of 40 nmol unlabeled NeoB, mean ± SD, read-out: uptake in GIST tumor, 4 h + block
  tissue uptake at 4 h: 0.3 ± 0.1 %ID/g
[2]; SCID, bladder, 200 pmol/mouse, 1 h pi, 200 pmol/~0.8 MBq i.v., mean ± SD, read-out: uptake in bladder
  tissue uptake at 1 h: 20.6 ± 19.7 %ID/g
[2]; SCID, large bowel content, 200 pmol/mouse, 4 h pi, 200 pmol/~0.8 MBq i.v., mean ± SD, read-out: uptake in large bowel content
  tissue uptake at 4 h: 10 ± 3.5 %ID/g
[2]; SCID, pancreas, 200 pmol/mouse, 1 h pi, 200 pmol/~0.8 MBq i.v., mean ± SD, read-out: uptake in pancreas
  tissue uptake at 1 h: 19.8 ± 2.6 %ID/g
[2]; SCID, pancreas, 200 pmol/mouse, 4 h pi, 200 pmol/~0.8 MBq i.v., mean ± SD, read-out: uptake in pancreas
  tissue uptake at 4 h: 8.5 ± 2 %ID/g
[2]; SCID, pancreas, 4 h pi, co-injected with excess of 40 nmol unlabeled NeoB, mean ± SD, read-out: uptake in pancreas, 4 h + block
  tissue uptake at 4 h: 0.1 %ID/g
[2]; SCID, tumor and kidney, 200 pmol/mouse, all investigated time points 1-168 h
  tissue to tissue ratio: > 1
[2]; SCID, tumor and kidney, 200 pmol/mouse, at 96 h, mean ± SD, read-out: tumor-to-kidney ratio (maximum value)
  tissue to tissue ratio at 96 h: 112 ± 5
[2]; SCID, tumor and liver, 200 pmol/mouse, at 48 h, mean ± SD, read-out: tumor-to-liver ratio (maximum value)
  tissue to tissue ratio at 48 h: 54 ± 5
[2]; SCID, tumor and pancreas, 200 pmol/mouse, at 168 h (1 week), mean ± SD, read-out: tumor-to-pancreas ratio (maximum value)
  tissue to tissue ratio at 168 h: 309 ± 148
[2]; SCID, urine, 200 pmol/mouse, 4 h pi, 200 pmol/~0.8 MBq i.v., mean ± SD, read-out: uptake in urine
  excreta dose per gram or mL at 4 h: 216 ± 193 %ID/g
[2]; urine, 200 pmol/mouse, 1 h pi, 200 pmol/~0.8 MBq i.v., GIST-882 bearing SCID mice, gamma counter, mean ± SD, read-out: uptake in urine
  excreta dose per gram or mL at 1 h: 600 ± 155 %ID/g
[3]; 4 h pi, 200 pmol/~0.8 MBq i.v., mean ± SD
  uptake in GIST tumor: 19.1 ± 3.9 % ID/g
[3]; 4 h pi, 40 nmol unlabeled NeoB
  decrease of uptake in GIST tumor by co-injection of unlabeled NeoB: > 98%
[3]; 4 h pi, co-injected with excess of 40 nmol unlabeled NeoB, mean ± SD
  uptake in GIST tumor, 4 h + block: 0.3 ± 0.1 % ID/g
[3]; 4 h pi, p < 0.05, multiple t tests, Holm-Sidak
  uptake in adrenals, blood, GIST tumor, large and small bowel, pancreas and stomach when co-injected with excess unlabeled NeoB: significantly reduced
[3]; at 168 h (1 week), mean ± SD
  tumor-to-pancreas ratio (maximum value): > 300
[3]; [8]
  half-life in pancreas: 2.41 h and 2.4 h
  half-life of retention in GIST tumor: 40.19 h and 40 h
[4]; 400 pmol group
  tissue uptake at 24 h: ~11 %ID/g
[4]; 800 pmol group, p < 0.05 vs 400 pmol
  tissue uptake at 24 h: ~7 %ID/g
[5]
  stability after labeling (radiochemical purity by radio-HPLC): remained stable
[6]
  total body weight of treated animals: No change
[6]; end of follow up
  off-target effect (inflammation, fibrosis, architecture alteration) on HES stained pancreatic sections: no off-target effect
[7]; 200 pmol
  pancreas half-life: 11 h
  tumor half-life in prostate tumors: 28 h
[7]; as early as 4 h after injection of 200 pmol
  tumor-to-pancreas ratio: > 1
